Laboratory results published in patent US9969998B2, “Compositions of adenosine deaminase-2 (ADA2), variants thereof and methods of using same” (Halozyme, Inc., priority 2014, dated 2018).
Residue numbers refer to the chain shown, from its start. In names and notes the source's numbering stands. Values belong to the molecule of their own block, whether it stands above or below them.

How the values were obtained:
[1] = Heparin-affinity chromatography (heparin-Sepharose, SDS-PAGE); type: binding; details: for Heparin Column Binding: compared to WT rHuADA2, 0.3 mg/mL protein
Experimental: To assess binding of variants to heparin, heparin-affinity chromatography was employed to identify heparin-bound variants. Heparin binding was tested by mixing 35 μL of rHuADA2 WT and variants with 20 μL heparin-Sepharose™ resin (GE Healthcare, Pittsburgh, Pa.; Cat. No. 17-0998-01), followed by incubating at room temperature for 30 min. The mixture was then centrifuged through a 0.22 μm centrifuge filter and the flow-through, containing the unbound protein, was collected for analysis on an SDS-PAGE gel. 35 μL of 1.5 M NaCl was added to heparin-Sepharose resin and incubated at room temperature (RT) for 10 min to elute the remaining heparin-bound protein from the heparin-Sepharose. Samples of purified WT rHuADA2 and tested variants, before and after mixing with the heparin-Sepharose resin, were analyzed by SDS-PAGE to compare the degree of heparin binding.

[2] = Adenosine deaminase (ADA) enzymatic activity assay kit; type: biochemical; details: for adenosine deaminase activity mU/mL / ΔA/min, adenosine deaminase activity: protein diluted to 5 μg/mL, serially diluted 2 fold (Table 21); for % activity vs. WT: relative to rHuADA2 WT (Table 21)
[3] = Kinetic assessment of adenosine deaminase activity (ammonia assay, Michaelis-Menten); type: biochemical
Experimental: Adenosine deaminase activity was determined by the measurement of ammonia released from adenosine when broken down to inosine. Ammonia was measured using a commercially available Ammonia Assay kit (Cat. No. AA0100, Sigma-Aldrich, St. Louis, Mo.). The kit contains dry reagents containing α-ketoglutaric acid and NADPH, which were reconstituted with 5 mL water prior to use in the assay. Ammonia reacts with α-ketogluaric acid (KGA) and reduced nicotinamide adenine dinucleotide phosphate (NADPH) in the presence of L-glutamate dehydrogenase (GDH).
Kinetics parameters of rHuADA2 WT and variants were compared using this assay at different adenosine concentrations at pH 7.6 and 6.5. Adenosine concentrations ranging from 20 μM to 20 mM were used. Sub-molar concentration of adenosine stock was prepared in 1N NaOH.
For the enzymatic assays at pH 7.6, adenosine was serially diluted with 100 mM sodium acetate (NaOAc), pH 4.9. A 2× reaction mixture was prepared, containing reconstituted ammonia assay reagent (containing about 4 mM α-ketoglutarate and about 300 μM NADPH), WT rHuADA2 or variants at 1 μg/mL (17 nM) and glutamate dehydrogenase (GDH, 1:50 dilution). 85 μL of adenosine was added to 85 μL 2× mixture in duplicate in a UV-transparent half-area plate. The change in absorbance (ΔA) at 340 nm over time at room temperature was monitored.
For the enzymatic assay at pH 6.5, adenosine was serially diluted with 200 mM piperazine-N,N′-bis(2-ethanesulfonic acid) (PIPES), pH 6.5. A 2× reaction mixture in 200 mM PIPES, pH 6.5 was prepared, containing 4 mM α-ketoglutarate, 300 μM NADPH, 1 μg/mL (17 nM) rHuADA2 or variants and 50 U/mL GDH (Cat No. G2626, Sigma-Aldrich). The enzymatic reaction was initiated by adding equal volume of adenosine to the 2× mixture in a UV-transparent half-area plate as described above, and the change in absorbance (AA) at 340 nm over time at room temperature was monitored.
Adenosine deaminase activity in mU/mL (μM/min equivalent) was calculated using the following formula: 1 mU/mL=−(−ΔA/min×Tv)/(Sv×ϵ×1) • where Tv=total volume (170 μL), Sv=sample volume (85 μL), ϵ=6.22×10^−3 μM^−1 cm^−1, 1=1 cm.
The activity data were fitted with non-linear regression of Michaelis-Menten equation using Graphpad Prism software to obtain Km and Vmax. Other kinetics parameters such as kcat and kcat/Km were also determined.

heparin binding compared to WT [1]: reduced heparin binding
Heparin Column Binding [1]: Reduced
% activity vs. WT [2]: 68.4%
B1: R23A: ADA2 variant SEQ ID NO:28 (protein)
chain: IDETRAHLLLKEKMMRLGGALVLNTKEELANERLMTLKIAEMKEAMRTLIFPPSMHFFQAKHLIERSQVFNILRMMPKGAALHLHDIGIVTMDWLVRNVTYRPHCHICFTPRGIMQFRFAHPTPRPSEKCSKWILLEDYRKRVQNVTEFDDSLLRNFTLVTQHPEVIYTNQNVVWSKFETIFFTISGLIHYAPVFRDYVFRSMQEFYEDNVLYMEIRARLLPVYELSGEHHDEEWSVKTYQEVAQKFVETHPEFIGIKIIYSDHRSKDVAVIAESIRMAMGLRIKFPTVVAGFDLVGHEDTGHSLHDYKEALMIPAKDGVKLPYFFHAGETDWQGTSIDRNILDALMLNTTRIGHGFALSKHPAVRTYSWKKDIPIEVCPISNQVLKLVSDLRNHPVATLMATGHPMVISSDDPAMFGAKGLSYDFYEVFMGIGGMKADLRTLKQLAMNSIKYSTLLESEKNTFMEIWKKRWDKFIADVATK
modifications: human ADA2 R20A, mature numbering
enzymatic activity relative to WT rHuADA2 [2]: reduced adenosine deaminase activity
adenosine deaminase activity mU/mL [2]: 53.3 mU/mL
ΔA/min, adenosine deaminase activity [2]: 23.2

Heparin Column Binding [1]: Reduced
% activity vs. WT [2]: 102.8%
B2: R369D: ADA2 variant SEQ ID NO:32 (protein)
chain: B1 chain with A20R, R366D
modifications: human ADA2 R366D, mature numbering
adenosine deaminase activity mU/mL [2]: 80.2 mU/mL
ΔA/min, adenosine deaminase activity [2]: 34.9

Heparin Column Binding [1]: Reduced
% activity vs. WT [2]: 124.2%
B3: K14A/R23A: ADA2 variant SEQ ID NO:55 (protein)
chain: B1 chain with K11A
modifications: human ADA2 K11A/R20A, mature numbering
adenosine deaminase activity mU/mL [2]: 96.9 mU/mL
ΔA/min, adenosine deaminase activity [2]: 42.1

heparin binding compared to WT [1]: reduced heparin binding
Heparin Column Binding [1]: Reduced
% activity vs. WT [2]: 20.3%
B4: R23D: ADA2 variant SEQ ID NO:29 (protein)
chain: B1 chain with A20D
modifications: human ADA2 R20D, mature numbering
enzymatic activity relative to WT rHuADA2 [2]: reduced adenosine deaminase activity
adenosine deaminase activity mU/mL [2]: 15.9 mU/mL
ΔA/min, adenosine deaminase activity [2]: 6.9

% of WT activity ([2]; purified protein at 5 μg/mL, compared to WT-ADA2): 170%
B5: R222Q: ADA2 variant SEQ ID NO:39 (protein)
chain: B1 chain with A20R, R219Q
modifications: human ADA2 R219Q, mature numbering
Adenosine deaminase activity mU/ml ([2]; purified protein at 5 μg/mL): 132.9 mU/ml
Adenosine deaminase activity ΔA/min ([2]; purified protein at 5 μg/mL): 57.8 ΔA/min
Km ([3]; pH 6.5): 994 µM
Km ([3]; pH 6.5, [E] = 8.5 nM): 994 µM
Vmax ([3]; pH 6.5, [E] = 8.5 nM): 42.15 µM/min
kcat ([3]; pH 6.5, [E] = 8.5 nM, kcat=Vmax/0.0085/60): 82.65 s⁻¹
Km ([3]; pH 7.6): 1920 µM
Km ([3]; pH 7.6, [E] = 8.5 nM): 1920 µM
Vmax ([3]; pH 7.6, [E] = 8.5 nM): 59.28 µM/min
kcat ([3]; pH 7.6, [E] = 8.5 nM, kcat=Vmax/0.0085/60): 116.24 s⁻¹

Heparin Column Binding [1]: Reduced
% activity vs. WT [2]: 75.9%
B6: K374A: ADA2 variant SEQ ID NO:19 (protein)
chain: B1 chain with A20R, K371A
modifications: human ADA2 K371A, mature numbering
adenosine deaminase activity mU/mL [2]: 59.2 mU/mL
ΔA/min, adenosine deaminase activity [2]: 25.8

heparin binding compared to WT [1]: not attenuated
% activity vs. WT [2]: 114.2%
B7: K14E: ADA2 variant SEQ ID NO:15 (protein)
chain: B1 chain with K11E, A20R
modifications: human ADA2 K11E, mature numbering
enzymatic activity relative to WT rHuADA2 [2]: improved enzymatic activity
adenosine deaminase activity mU/mL [2]: 89.1 mU/mL
ΔA/min, adenosine deaminase activity [2]: 38.8

heparin binding compared to WT [1]: reduced heparin binding
Heparin Column Binding [1]: Reduced
% activity vs. WT [2]: 44%
B8: R369A: ADA2 variant SEQ ID NO:31 (protein)
chain: B1 chain with A20R, R366A
modifications: human ADA2 R366A, mature numbering
enzymatic activity relative to WT rHuADA2 [2]: reduced adenosine deaminase activity
adenosine deaminase activity mU/mL [2]: 34.3 mU/mL
ΔA/min, adenosine deaminase activity [2]: 14.9

Heparin Column Binding [1]: Reduced
% activity vs. WT [2]: 93.3%
B9: K14A/R23A/K374A: ADA2 variant SEQ ID NO:56 (protein)
chain: B1 chain with K11A, K371A
modifications: human ADA2 K11A/R20A/K371A, mature numbering
adenosine deaminase activity mU/mL [2]: 72.8 mU/mL
ΔA/min, adenosine deaminase activity [2]: 31.7

Heparin Column Binding [1]: Reduced
% activity vs. WT [2]: 104.8%
B10: K375A: ADA2 variant SEQ ID NO:22 (protein)
chain: B1 chain with A20R, K372A
modifications: human ADA2 K372A, mature numbering
adenosine deaminase activity mU/mL [2]: 81.8 mU/mL
ΔA/min, adenosine deaminase activity [2]: 35.5

B11: K374D/V102-Q147del→(GGGGS)1 (protein)
chain: IDETRAHLLLKEKMMRLGGRLVLNTKEELANERLMTLKIAEMKEAMRTLIFPPSMHFFQAKHLIERSQVFNILRMMPKGAALHLHDIGIVTMDWLVRNGGGGSNVTEFDDSLLRNFTLVTQHPEVIYTNQNVVWSKFETIFFTISGLIHYAPVFRDYVFRSMQEFYEDNVLYMEIRARLLPVYELSGEHHDEEWSVKTYQEVAQKFVETHPEFIGIKIIYSDHRSKDVAVIAESIRMAMGLRIKFPTVVAGFDLVGHEDTGHSLHDYKEALMIPAKDGVKLPYFFHAGETDWQGTSIDRNILDALMLNTTRIGHGFALSKHPAVRTYSWDKDIPIEVCPISNQVLKLVSDLRNHPVATLMATGHPMVISSDDPAMFGAKGLSYDFYEVFMGIGGMKADLRTLKQLAMNSIKYSTLLESEKNTFMEIWKKRWDKFIADVATK
modifications: V102-Q147 replaced by (GGGGS)1; human ADA2 K371D/V99-Q144del->(GGGGS)1, mature numbering
Km ([3]; pH 7.6, [E] = 8.5 nM): 890 µM
Vmax ([3]; pH 7.6, [E] = 8.5 nM): 43.46 µM/min
kcat ([3]; pH 7.6, [E] = 8.5 nM): 85.22 s⁻¹

B12: K374D/V102-Q147del→(GGGGS)2 (protein)
chain: IDETRAHLLLKEKMMRLGGRLVLNTKEELANERLMTLKIAEMKEAMRTLIFPPSMHFFQAKHLIERSQVFNILRMMPKGAALHLHDIGIVTMDWLVRNGGGGSGGGGSNVTEFDDSLLRNFTLVTQHPEVIYTNQNVVWSKFETIFFTISGLIHYAPVFRDYVFRSMQEFYEDNVLYMEIRARLLPVYELSGEHHDEEWSVKTYQEVAQKFVETHPEFIGIKIIYSDHRSKDVAVIAESIRMAMGLRIKFPTVVAGFDLVGHEDTGHSLHDYKEALMIPAKDGVKLPYFFHAGETDWQGTSIDRNILDALMLNTTRIGHGFALSKHPAVRTYSWDKDIPIEVCPISNQVLKLVSDLRNHPVATLMATGHPMVISSDDPAMFGAKGLSYDFYEVFMGIGGMKADLRTLKQLAMNSIKYSTLLESEKNTFMEIWKKRWDKFIADVATK
modifications: V102-Q147 replaced by (GGGGS)2; human ADA2 K371D/V99-Q144del->(GGGGS)2, mature numbering
Km ([3]; pH 7.6, [E] = 8.5 nM): 870 µM
Vmax ([3]; pH 7.6, [E] = 8.5 nM): 44.52 µM/min
kcat ([3]; pH 7.6, [E] = 8.5 nM): 87.29 s⁻¹
